Results as given in patent US7919262B2, “14-3-3 proteins for diagnosis of Parkinson's disease” (The UAB Research Foundation, priority 2007, dated 2011).

B1: 14-3-3ε: 14-3-3 polypeptide ε isoform, overexpressed from expression vector (protein, UniProt P62258 1-255, looked up)
14-3-3 protein epsilon: MDDREDLVYQAKLAEQAERYDEMVESMKKVAGMDVELTVEERNLLSVAYKNVIGARRASWRIISSIEQKEENKGGEDKLKMIREYRQMVETELKLICCDILDVLDKHLIPAANTGESKVFYYKMKGDYHRYLAEFATGNDRKEAAENSLVAYKAASDIAMTELPPTHPIRLGLALNFSVFYYEILNSPDRACRLAKAAFDDAIAELDTLSEESYKDSTLIMQLLRDNLTLWTSDMQGDGEEQNKEALQDVEDENQ
B2: 14-3-3ζ: 14-3-3 polypeptide ζ isoform, overexpressed from expression vector (protein, UniProt P63104 1-245, looked up)
14-3-3 protein zeta/delta: MDKNELVQKAKLAEQAERYDDMAACMKSVTEQGAELSNEERNLLSVAYKNVVGARRSSWRVVSSIEQKTEGAEKKQQMAREYREKIETELRDICNDVLSLLEKFLIPNASQAESKVFYLKMKGDYYRYLAEVAAGDDKKGIVDQSQQAYQEAFEISKKEMQPTHPIRLGLALNFSVFYYEILNSPEKACSLAKTAFDEAIAELDTLSEESYKDSTLIMQLLRDNLTLWTSDTQGDEAEAGEGGEN
B3: 14-3-3θ: 14-3-3 polypeptide θ isoform, overexpressed from V5/His-tagged pcDNA3.1 vector (or as transgene in C. elegans) (protein, UniProt P27348 1-245, looked up)
14-3-3 protein theta: MEKTELIQKAKLAEQAERYDDMATCMKAVTEQGAELSNEERNLLSVAYKNVVGGRRSAWRVISSIEQKTDTSDKKLQLIKDYREKVESELRSICTTVLELLDKYLIANATNPESKVFYLKMKGDYFRYLAEVACGDDRKQTIDNSQGAYQEAFDISKKEMQPTHPIRLGLALNFSVFYYEILNNPELACTLAKTAFDEAIAELDTLNEDSYKDSTLIMQLLRDNLTLWTSDSAGEECDAAEGAEN
modifications: V5/His tag

Legend:
[1] = system: M17 cells; assay: MPP+ toxicity in stably transfected cell lines, LDH release; format: cell-based, human; settings: stable overexpression; MPP+ 0-10 mM; 24 hours
Experimental: Cell lines stably-transfected with either a 14-3-3 isoform or empty vector were treated with varying concentrations of MPP+ for 24 hours. Cell death was assayed by LDH release into the culture media. LDH release into media was normalized to total LDH release for each well. Lines overexpressing 14-3-3θ (FIG. 9A), 14-3-3ε (FIG. 9B), or 14-3-3γ (FIG. 9C) were more resistant to MPP+ in a dose-dependent manner compared to control stable cells. […] Results reflect two to three independent experiments with at least two replicates per experiment. **p<0.01, ***p<0.001 (Bonferroni's multiple comparison test).
The 14-3-3 expressing M17 clones were also tested for resistance to the neurotoxin 1-methyl-4-phenylpyridinium ion (MPP+), which is a metalbolite of 1-methyl-4-phenyl-1,2,3,6-tetrahydropyridine (MPTP). M17 cells expressing the 14-3-3 isoforms were prepared as described. M17 cells were treated with MPP+ (0-10 mM) for 24 hours (FIGS. 9A-G). Cell death was assayed by LDH release into the culture media as described above.
Primers against each of the human 14-3-3 isoforms were designed using Primer3. Primers against 14-3-3β (NM_018753) were 5′ […] 3′ (forward; SEQ ID NO. 9) and 5′ […] 3′ (reverse; SEQ ID NO. 10). Primers against 14-3-3ε (NM_009536) were 5′ […] 3′ (forward; SEQ ID NO. 11) and 5′ […] 3′ (reverse; SEQ ID NO. 12). Primers against 14-3-3γ (NM_018871) were 5′ […] 3′ (forward; SEQ ID NO. 13) and 5′ […] 3′ (reverse; SEQ ID NO. 14). Primers against 14-3-3η (NM_011738) were 5′ […] 3′ (forward; SEQ ID NO. 15) and 5′ […] 3′ (reverse; SEQ ID NO. 16). Primers against 14-3-3θ (NM_011739) were 5′ […] 3′ (forward; SEQ ID NO. 17) and 5′ […] 3′ (reverse; SEQ ID NO. 18). Primers against 14-3-3σ (NM_018754) were 5′ […] 3′ (forward; SEQ ID NO. 19) and 5′ […] 3′ (reverse; SEQ ID NO. 20). Primers against 14-3-3ζ(NM_011740) were 5′ […] 3′ (forward; SEQ ID NO. 21) and 5′ […] 3′ (reverse; SEQ ID NO. 22). Primers against GAPDH were 5′ tggtgaagcaggeatctga 3′ (forward; SEQ ID NO. 23) and 5′ […] 3′ (reverse; SEQ ID NO. 24) and were used to normalize PCR results. • α-syn aggregation assay H4 cells were transfected with synphilin, α-syn/green fluorescent protein (synT), and either empty vector control or a 14-3-3 isoform using Superfect transfection reagent (Qiagen). 24 hours after transfection, cells were fixed with 4% paraformaldehyde and immunostained with a monoclonal antibody against α-syn (BD Transduction) and a secondary Alexa 488-conjugated goat anti-mouse antibody (Molecular Probes). All cells stained for α-syn were scored as positive or negative for α-syn aggregates, with the rater blind to experimental condition. • α-syn toxicity assay H4 cells were transfected with α-syn and either empty vector control or a 14-3-3 isoform using Superfect transfection reagent (Qiagen). 24 hours after transfection, toxicity was measured by the amount of adenylate kinase released into the media using the ToxiLight™ kit (Cambrex). • Creation of stable cell lines Each 14-3-3 isoform was subcloned into the mammalian expression vector mcDNA3.1/V5-His (Invitrogen). BE(2)-M17 cells were transfected with each isoform or empty vector using Superfect, and stably-transfected cells were selected for in the presence of G418. […] Protein concentrations of supernatants were determined by the bicinchoninic acid assay (BCA; Pierce, Rockford, Ill.). […]

[2] = system: SK-N-BE(2)-M17 (M17) cells; assay: Rotenone toxicity in stably transfected cell lines, LDH release; format: cell-based; settings: for rotenone-induced cell death, % of that in control cells: 1 μM rotenone, LDH release; for rotenone-induced cell death, % of that in control cells / protection against rotenone toxicity (LDH release): 48 hours; for protection against rotenone toxicity (LDH release): rotenone at varying concentrations
Experimental: Cell lines stably-transfected with either 14-3-3θ or empty vector were treated with varying concentrations of rotenone (0-25 μM) for 24 hours (FIG. 6A), 30 hours (FIG. 6B), or 48 hours (FIG. 6C). Cell death was assayed by LDH release into the culture media. LDH release into media was normalized to total LDH release for each well. […] Rater was blind to experimental condition. n=8 for each experimental condition. *p<0.05, ***p<0.001 (Bonferroni's multiple comparison test).
M17 cell lines stably-transfected with either a 14-3-3 isoform or empty vector were treated with varying concentrations of rotenone (0-25 μM) for 48 hours. Cell death was assayed by LDH release into the culture media. LDH release into media was normalized to total LDH release for each well. […] Results reflect two to three independent experiments with at least two replicates per experiment. *p<0.05, **p<0.01, ***p<0.001 (Bonferroni's multiple comparison test).
Additional studies were performed to evaluate the effect of 14-3-3 polypeptide isoforms in mammalian cells. In these studies, cDNA clones for the 14-3-3 polypeptide β, γ, ε, η, θ, and σ isoforms were subcloned into the mammalian expression vector pcDNA 3.1/V5/His (Invitrogen). The polypeptide expressed from this vector contains the particular 14-3-3 isoform with a V5 and a His6 tag at the C-terminal end. […] SK-N-BE(2)-M17 (M17) cells, a dopaminergic-producing human neuroblastoma cell line, were transfected with each isoform or empty vector using Superfect, and stably-transfected cells were selected for in the presence of G418.
The M17 14-3-3θ clones were examined for their resistance to rotenone (0-25 μM). M17 cell lines stably transfected with either 14-3-3θ or empty vector were treated with rotenone for 24 (FIG. 6A), 30 (FIG. 6B) or 48 hours (FIG. 6C). Cell death was assayed by […] (LDH) release into the culture media using the LDH assay kit from Roche. LDH release into media was normalized to total LDH release for each well. Results reflect three independent experiments with at least two replicates per experiment.
Stable M17 cell lines overexpressing these other isoforms were treated with rotenone at varying concentrations, and then cell death was assayed at 48 hours by LDH release. […]

Molecule | protection against MPP+ toxicity (LDH release) [1] | rotenone-induced cell death, % of that in control cells ([2]; stable overexpression) [%] | protection against rotenone toxicity (LDH release) ([2]; stable overexpression) | protection against rotenone at low doses ([2]; 0.04 and 0.2 μM rotenone) | protection against rotenone at higher doses ([2]; 1 and 5 μM rotenone) | resistance to rotenone toxicity compared to control cells (LDH release) ([2]; stable overexpression, rotenone 0-25 μM, 24, 30 or 48 hours)
14-3-3γ: 14-3-3 polypeptide γ isoform, overexpressed from expression vector | reduced toxicity | 55 | prominent reduction in rotenone-induced toxicity |  |  | 
B1 | reduced toxicity | 65 | prominent reduction in rotenone-induced toxicity |  |  | 
B2 | did not show any significant protection | 78 | some protection |  |  | 
B3 | reduced toxicity | 45 |  | Mild protection | more prominent protection | more resistant to rotenone toxicity
